In the assay the target is HA-tagged PHB2 alanine mutant at Ser39 (S39A) (human) (UniProt Q99623). Nature of the assay: anti-HA IP of nuclear extracts of transfected SK-BR-3 cells after 1 µM stERAP, immunoblot.

NcoR, O75376 1-2440 displayed a reduction rate of binding against WT of 82%.

The values are drawn from patent US20200255474A1.
